For one substance, percent dimers results are on record in article PMC8239413.

This assay addresses truncated RBD variant RBD-215 (amino acids R319-L533), plant-produced (SARS-CoV-2) (UniProt P0DTC2). Nature of the assay: SEC; IMAC-purified RBD-215 (Supplementary Figure 4). Background: SEC sorts molecules by how far they enter the pores of the column.

“truncated RBD variant RBD-215 (amino acids R319-L533), plant-produced (from UniProt P0DTC2 319-533) (domain or fragment)” gave a percent dimers of 10%.
